Laboratory results published in paper doi:10.1101/2022.02.18.481027.

Experiments:
[1] = target: Murine IL-27Rα ectodomain (amino acids 28-224), N-terminally biotinylated (murine) (UniProt O70394); assay: SPR
[2] = target: Murine GP130 ectodomain with C-terminal biotin acceptor peptide, biotinylated (murine) (UniProt Q00560); assay: SPR
Murine GP130 ectodomain with C-terminal biotin acceptor peptide, biotinylated (murine), sequence (Q00560 23-319): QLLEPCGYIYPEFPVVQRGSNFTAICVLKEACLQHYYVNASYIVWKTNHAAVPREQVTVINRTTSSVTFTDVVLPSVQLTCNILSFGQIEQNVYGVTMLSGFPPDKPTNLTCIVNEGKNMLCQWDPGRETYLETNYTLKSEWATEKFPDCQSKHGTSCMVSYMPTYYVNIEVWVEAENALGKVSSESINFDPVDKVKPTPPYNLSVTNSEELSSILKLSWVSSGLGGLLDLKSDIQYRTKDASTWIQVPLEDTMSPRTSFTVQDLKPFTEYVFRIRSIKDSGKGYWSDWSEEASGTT

Murine IL-27Rα ectodomain (amino acids 28-224), N-terminally biotinylated (murine), sequence (O70394 28-224): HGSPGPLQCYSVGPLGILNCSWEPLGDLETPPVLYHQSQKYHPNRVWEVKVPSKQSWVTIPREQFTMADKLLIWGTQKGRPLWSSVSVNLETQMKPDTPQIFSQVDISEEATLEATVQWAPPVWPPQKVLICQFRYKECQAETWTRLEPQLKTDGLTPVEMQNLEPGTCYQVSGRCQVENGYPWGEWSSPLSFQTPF

## Murine IL-27, linker-connected single-chain variant (p28+EBI3) (ligand)
[1]
  Kd: 0.29 nM
[2]
  Kd: 3.1 nM
